T1: mature form of full-length OmpA (OmpA325) (E. coli K12 MG1655), P0A910
T1 chain: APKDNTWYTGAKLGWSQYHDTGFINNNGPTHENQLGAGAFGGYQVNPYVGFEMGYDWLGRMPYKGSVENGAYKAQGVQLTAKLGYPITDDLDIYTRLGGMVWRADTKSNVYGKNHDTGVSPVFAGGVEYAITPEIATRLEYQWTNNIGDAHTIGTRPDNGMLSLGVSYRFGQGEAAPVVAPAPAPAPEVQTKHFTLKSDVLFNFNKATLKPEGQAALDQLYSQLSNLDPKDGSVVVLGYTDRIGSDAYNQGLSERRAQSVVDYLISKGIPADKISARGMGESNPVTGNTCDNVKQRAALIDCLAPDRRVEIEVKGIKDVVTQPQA


Experiments:
[1] = target: N-terminal barrel domain of OmpA (OmpA171, residues 1–171) (E. coli K12 MG1655); test: circular dichroism kinetics
[2] = target: T1, mature form of full-length OmpA …; test: AUC; conditions: remark: other sources report otherwise

Chain of N-terminal barrel domain of OmpA (OmpA171, residues 1–171) (domain or fragment) (P0A910 1-171): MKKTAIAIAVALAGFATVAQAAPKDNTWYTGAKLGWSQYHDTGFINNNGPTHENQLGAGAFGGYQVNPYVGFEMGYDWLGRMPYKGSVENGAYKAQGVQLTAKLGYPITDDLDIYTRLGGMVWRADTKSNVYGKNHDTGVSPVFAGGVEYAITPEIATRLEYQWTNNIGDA

Row | critical nucleus size n* (nucleated growth polymerization model) [1] [molecules] | order of the self-association reaction (initial rates) [1] | percent monomer (3 μM OmpA325, 450 mM urea, 30 minutes) [2] [%] | Molecule
1 | 2.6 | 3.2 |  | N-terminal barrel domain of OmpA (OmpA171, residues 1–171) (domain or fragment)
2 |  |  | 75 | mature form of full-length OmpA (OmpA325), P0A910 22-346 (natural protein) APKDNTWYTGAKLGWSQYHDTGFINNNGPTHENQLGAGAFGGYQVNPYVGFEMGYDWLGRMPYKGSVENGAYKAQGVQLTAKLGYPITDDLDIYTRLGGMVWRADTKSNVYGKNHDTGVSPVFAGGVEYAITPEIATRLEYQWTNNIGDAHTIGTRPDNGMLSLGVSYRFGQGEAAPVVAPAPAPAPEVQTKHFTLKSDVLFNFNKATLKPEGQAALDQLYSQLSNLDPKDGSVVVLGYTDRIGSDAYNQGLSERRAQSVVDYLISKGIPADKISARGMGESNPVTGNTCDNVKQRAALIDCLAPDRRVEIEVKGIKDVVTQPQA
